Test [1] addresses T1, MS2 bacteriophage coat protein (MS2 bacteriophage, UniProt P03612 2-130).
T1 sequence: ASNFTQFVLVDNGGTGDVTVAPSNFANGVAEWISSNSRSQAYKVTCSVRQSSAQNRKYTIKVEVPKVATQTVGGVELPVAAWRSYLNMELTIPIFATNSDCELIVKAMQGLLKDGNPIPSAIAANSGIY
Kind of test: SPR (Biacore T200), MS2 immobilised on CM5 chip, scFv in solution.
Method: (§1) Binding affinity measurements for the antibody variants were obtained by surface immobilization of antigen. Specifically, kinetic analysis was performed using a Biacore T200 (GE Healthcare, Waukesha, Wis.). […] For full-length IgGs, a capture assay was used to allow accurate assessment of antibody affinity. […] Surfaces were regenerated using 3 M MgCl₂. Association and dissociation kinetic values (kₐ and kd) were determined from a best fit of the data with the 1:1 Langmuir global fitting procedure to sensorgrams using the Biacore T200 Evaluation Software, version 1.0.

Test [2] has as its target T1, MS2 bacteriophage coat protein. Nature of the test: SPR (Biacore), FIG. 2D. Background: In SPR one partner is held on a chip, and binding of the other changes the refractive index at the surface.
Test [3] shares this target. Kind of test: SPR (Biacore T200), IgG captured on anti-human IgG Fc, MS2 antigen flowed over.
Method: as §1
The target is the same in test [4]. Nature of the test: SPR (Biacore), FIG. 2C.
The target is the same in test [5]. Kind of test: SPR (Biacore), FIG. 7C.
For test [6] the target is unchanged. Nature of the test: SPR (Biacore).
For test [7] the target is unchanged. Nature of the test: SPR (Biacore), FIG. 3D.

The record followed here is US20140079691A1 (ANAPTYSBIO, published 2014).

B1: mouse anti-MS2 scFv (scFv)
scFv: EVKLVESGGGLVKPGGSLKLSCAASGFTFSSYAMSWVRQTPEKRLEWVATISTGGGYTYFPDSVKGRFTISRDNAKNALYLQMKSLRSEDTAMYYCARQGDFGDWYFDVWGAGTTVTVSSGGGGSGGGGSGGGGSDVLMTQTPLSLPVSLGDQASISCRSSQSLVHSNGNTYLHWYLQKPGQSPKLLIYKVSNRFSGVPDRFSGSGSGTDFTLKISRVEAEDLGVYFCSQSTHVPWTFGGGTKLEIK
As to B1, the Kd (commonly the constant that tells how readily two partners part at equilibrium) in test [1] was determined as 29 nM. Besides, in test [2], the off-rate constant (koff) (in general, a measure of how fast the partners let go of each other) turned out to be 0.008 s⁻¹ and the kon (in general, a measure of how fast the partners come together) is 280000 M⁻¹ s⁻¹.

B2: APE443 (antibody, V domains shown)
VH: EVQLLESGGGLVQPGGSLRLSCAASGFTFSSYAMSWVRQAPGKGLEWVSTISTGGGYTYFPDSVKGRFTISRDNSKNTLYLQMNSLRAEDTAVYYCARQGDFGDWYFDVWGAGTTVTVSS
VL: DVVMTQSPLSLPVTLGQPASISCRSSQSLVHSNGNTYLHWFQQRPGQSPRRLIYKVSNRFSGVPDRFSGSGSGTDFTLKISRVEAEDVGVYYCSQSTHVPWTFGGGTKLEIK
notes: also called initial CDR-grafted antibody; initial grafted antibody
Turning to B2, binding in test [3] was put at a Kd of 84 nM. In test [4], this molecule returned a Kd of 170 nM, a koff of 0.011 s⁻¹ and a kon of 68000 M⁻¹ s⁻¹.

B3: APE1027 (antibody, V domains shown)
VH: EVQLVESGGGLVQPGGSLILSCVASGFTFSSYAMSWVRQAPGKGLEWVCTISTGGGYTYSPDSVKGRFTCSRDNSKNTLYLQMNSLRAEDTAVYYCARQGDFGDWYFDVWGAGTTVTVSS
VL: DVVLTQSPLSLAVLLGQPASISCRSSESLVHTNGNTYLHWYQQRPGQSPRLLIYKVSNRFSGVPDRFSGSGSGTDFTLKISRVEAEDVGVYFCSQSTRVPWTFGGGTKLEIK
In test [3], B3 returned a Kd of 0.88 nM. In test [5], this molecule showed a koff of 8.5e-05 s⁻¹ and a kon of 97000 M⁻¹ s⁻¹.

B4: APE1051 (antibody, V domains shown)
VH: EVQLLESGGGLVQPGGSLRLSCVASGFTFSSYAMSWVRQAPGKGLEWVSTISTGGGYTYFPDSVKGRFTISRDNSKNTLYLQMNSLRAEDTAVYYCARQGDFGDWYFDVWGAGTTVTVSS
VL: DVVMTQSPLSLPVTLGQPASISCRSSQSLVHSNGNTYLHWYQQRPGQSPRLLIYKVSNRFSGVPDRFSGSGSGTDFTLKISRVEAEDVGVYFCSQSTHVPWTFGGGTKLEIK
In turn, B4 displayed a Kd in test [3] of 15.1 nM.

B5: APE830 (antibody, V domains shown)
VH: EVQLLESGGGLVQPGGSLRLSCVASGFTFSSYAMSWVRQAPGKGLEWVSTISTGGGYTYFPDSVKGRFTISRDNSKNTLYLQMNSLRAEDTAVYYCARQGDFGDWYFDVWGAGTTVTVSS
VL: DVVMTQSPLSLPVTLGQPASISCRSSESLVHTNGNTYLHWYQQRPGQSPRLLIYKVSNRFSGVPDRFSGSGSGTDFTLKISRVEAEDVGVYFCSQSTRVPWTFGGGTKLEIK
Consider B5, for which the affinity in test [3], expressed as Kd, was 1.6 nM.

B6: APE849 (antibody, V domains shown)
VH: EVQLLESGGGLVQPGGSLRLSCAASGFTFSSYAMSWVRQAPGKGLEWVSTISTGGGYTYSPDSVKGRFTISRDNSKNTLYLQMNSLRAEDTAVYYCARQGDFGDWYFDVWGAGTTVTVSS
VL: DVVMTQSPLSLPVTLGQPASISCRSSESLVHTNGNTYLHWYQQRPGQSPRLLIYKVSNRFSGVPDRFSGSGSGTDFTLKISRVEAEDVGVYFCSQSTRVPWTFGGGTKLEIK
B6 gave a Kd in test [3] of 2 nM. The “fold improvement in affinity (reference not given)” value in test [6] amounted to 40 fold.

B7: APE556 (antibody, V domains shown)
VH: EVQLLESGGGLVQPGGSLRLSCAASGFTFSSYAMSWVRQAPGKGLEWVSTISTGGGYTYFPDSVKGRFTISRDNSKNTLYLQMNSLRAEDTAVYYCARQGDFGDWYFDVWGAGTTVTVSS
VL: DVVMTQSPLSLPVTLGQPASISCRSSQSLVHSNGNTYLHWYQQRPGQSPRLLIYKVSNRFSGVPDRFSGSGSGTDFTLKISRVEAEDVGVYFCSQSTHVPWTFGGGTKLEIK
In turn, B7 gave an equilibrium dissociation constant (Kd) in test [3] of 27 nM. In test [7], this molecule came in with an off-rate (koff) of 0.0055 s⁻¹ and a kon of 210000 M⁻¹ s⁻¹.

B8: APE565 (antibody, V domains shown)
VH: EVQLLESGGGLVQPGGSLRLSCAASGFTFSSYAMSWVRQAPGKGLEWVCTISTGGGYTYFPDSVKGRFTCSRDNSKNTLYLQMNSLRAEDTAVYYCARQGDFGDWYFDVWGAGTTVTVSS
VL: DVVMTQSPLSLPVTLGQPASISCRSSQSLVHSNGNTYLHWYQQRPGQSPRLLIYKVSNRFSGVPDRFSGSGSGTDFTLKISRVEAEDVGVYFCSQSTHVPWTFGGGTKLEIK
In test [3], B8 showed a Kd of 7 nM. In addition, the “fold improvement in KD over APE556” value in test [6] turned out to be 4 fold.

B9: APE850 (antibody, V domains shown)
VH: EVQLLESGGGLVQPGGSLRLSCVASGFTFSSYAMSWVRQAPGKGLEWVSTISTGGGYTYSPDSVKGRFTISRDNSKNTLYLQMNSLRAEDTAVYYCARQGDFGDWYFDVWGAGTTVTVSS
VL: DVVMTQSPLSLPVTLGQPASISCRSSESLVHTNGNTYLHWYQQRPGQSPRLLIYKVSNRFSGVPDRFSGSGSGTDFTLKISRVEAEDVGVYFCSQSTRVPWTFGGGTKLEIK
For B9, the Kd in test [3] came out at 0.985 nM. In test [6], the “fold improvement in KD over the initial grafted antibody (APE443)” value worked out at 85 fold, the “fold improvement in ka over the initial grafted antibody (APE443)” value turned out to be 12 fold and the “fold improvement in kd over the initial grafted antibody (APE443)” value came out at 7 fold.

B10: APE1052 (antibody, V domains shown)
VH: EVQLLESGGGLVQPGGSLRLSCAASGFTFSSYAMSWVRQAPGKGLEWVSTISTGGGYTYFPDSVKGRFTISRDNSKNTLYLQMNSLRAEDTAVYYCARQGDFGDWYFDVWGAGTTVTVSS
VL: DVVMTQSPLSLPVTLGQPASISCRSSESLVHTNGNTYLHWYQQRPGQSPRLLIYKVSNRFSGVPDRFSGSGSGTDFTLKISRVEAEDVGVYFCSQSTRVPWTFGGGTKLEIK
With B10, in test [3], binding was put at a Kd of 4.2 nM. Moreover, in test [6], the “fold improvement in KD over the initial grafted antibody (APE443)” value is 20 fold.
